{
  "source": "patent US20050049299A1",
  "about": "“Selective inhibitors of stat-3 activation and uses thereof” (priority 2003, published 2005)",
  "key": {"STAT3 phosphorylation": {"tested_on": "STAT3 phosphorylation", "assay": "STAT3 phosphorylation in MM.1S and MM.1R cells after TNF, LT or IL-6 (Western blot)", "assay_type": "cell-based, human", "conditions": "1 nM TNF or LT", "description": "(§1) The cell proliferation assay was performed as described below. Results are shown as mean (±s.d. indicated by error bar) of percent [^3H] thymidine incorporation of triplicate cultures compared to the untreated control. […] Cells were treated with IL-6 for 10 minutes as a positive control for STAT3 phosphorylation. Thirty micrograms of whole cell extract was were resolved on 7.5% SDS-PAGE, electrotransferred to a nitrocellulose membrane, and probed for phosphorylated-STAT3 (upper panel), stripped, and reprobed for STAT3 (lower panel).\nFor detection of STAT proteins, whole-cell extracts were prepared by lysing the curcumin-treated cells in lysis buffer (20 mM Tris, pH 7.4, 250 mM NaCl, 2 mM EDTA, pH 8.0, 0.1% Triton-X100, 0.01 mg/ml aprotinin, 0.005 mg/ml leupeptin, 0.4 mM PMSF, and 4 mM NaVO4). Lysates were then spun at 14000 rpm for 10 min to remove insoluble material, and resolved on a 7.5% gel. After electrophoresis, the proteins were electrotransferred to a nitrocellulose membrane, blocked with 5% nonfat milk, and probed with anti-STAT antibodies (1:1000) overnight at 4° C. The blot was washed, exposed to HRP-conjugated secondary antibodies for 1 h, and finally examined by chemiluminescence (ECL, Amersham Pharmacia Biotech. Arlington Heights, Ill.).\n(§2) MM.1S and MM.1R cells were serum starved for 12 h and then treated with TNF or lymphotoxin in the serum free medium."}, "MM.1S and MM.1R cells": {"tested_on": "MM.1S and MM.1R cells", "assay": "TNF- and LT-induced proliferation of MM.1S and MM.1R cells (thymidine incorporation)", "assay_type": "cell-based, human", "conditions": "serum starved 12 h, 48 hours serum-free", "description": "as §1\nThe antiproliferative effects of curcumin were also monitored by the thymidine incorporation method. For this, 5000 cells in 100 μl medium were cultured in triplicate in 96-well plates in the presence or absence of curcumin for 24 h. Six hours before the completion of experiment, cells were pulse treated with 0.5 μCi [^3H]thymidine, and the uptake of [^3H]thymidine was monitored using a Matrix-9600 β-counter (Packard Instruments, Downers Grove, Ill.).\nas §2"}},
  "data": [
    {"molecule": "lymphotoxin: bacteria-derived recombinant human LT provided by Genentech (protein, UniProt P01374 35-205, looked up) Lymphotoxin-alpha: LPGVGLTPSAAQTARQHPKMHLAHSTLKPAAHLIGDPSKQNSLLWRANTDRAFLQDGFSLSNNSLLVPTSGIYFVYSQVVFSGKAYSPKATSSPLYLAHEVQLFSSQYPFHVPLLSSQKMVYPGLQEPWLHSMYHGAAFQLTQGDQLSTHTDGIPHLVLSPSTVFFGAFAL", "values": [
      {"measurement": "induction of STAT3 phosphorylation", "setting": "STAT3 phosphorylation", "value": "neither TNF nor lymphotoxin induced STAT3 phosphorylation"},
      {"measurement": "proliferative effects in MM.1S and MM.1R cells", "setting": "MM.1S and MM.1R cells", "value": "more pronounced in dex-resistant MM.1R cells than in dex-sensitive MM.1S cells"}
    ]}
  ]
}
